Source: doi:10.1101/2022.10.28.512841 (bioRxiv, 2022)

Molecular target: the molecule itself
Assay: SEC-SAXS

B1: gated spinach aquaporin SoPIP2;1 (natural protein)
chain: MSKEVSEEAQAHQHGKDYVDPPPAPFFDLGELKLWSFWRAAIAEFIATLLFLYITVATVIGHSKETVVCGSVGLLGIAWAFGGMIFVLVYCTAGISGGHINPAVTFGLFLARKVSLLRALVYMIAQCLGAICGVGLVKAFMKGPYNQFGGGANSVALGYNKGTALGAEIIGTFVLVYTVFSATDPKRSARDSHVPILAPLPIGFAVFMVHLATIPITGTGINPARSFGAAVIFNSNKVWDDQWIFWVGPFIGAAVAAAYHQYVLRAAAIKALGSFRSNPTN
B1: binds.
